We go through nine molecules from PMC12081870 (Communications Biology, 2025).

Changes are numbered by the printed parent chain. In names and notes the source's numbering stands. Several values for one entry are separate records, joined by “and”; a condition that tells them apart may be missing. Equal values may be shown once. Ends that are not written are not given here.

Test [1] concerns Las17-GFP and Arc15-mCherry. In words: Dual-reporter lifetimes, Las17-GFP and Arc15-mCherry co-localisation. Type of test: cell-based, Saccharomyces cerevisiae. On the set-up: lifetime, GFP alone / lifetime, GFP and RFP / lifetime, RFP: unit not given here. To be noted: sheet Fig9E, individual endocytic patches, one per cell. As for the experimental part:
A size bar for each set of kymographs is shown on the upper right of each set. For (A) and (C) size bar is 100 nm and for B is 200 nm. Error bars are standard deviation. […] The site of interest is labelled in the first two time panels with a white arrow. Exposure 0.5 sec with 1 second time lapse. 120 s recorded. […] Error bars are standard deviation.
Individual spots were analysed for lifetimes and behaviours.
Yeast strains used in this study are listed in Supplementary table 2 and plasmids used in Supplementary table 1. Unless stated otherwise, cells were grown with rotary shaking at 30 °C in liquid YPD medium (1% yeast extract, 2% Bacto-peptone, 2% glucose supplemented with 40 μg/ml adenine) or in synthetic medium (0.67% yeast nitrogen base, 2% glucose) with appropriate supplements. […] DNA cassettes carrying mutations for integration were transformed into KAY1801. Mutant colonies were counter-selected on minimal medium, containing 0.005% uracil and 0.1% 5’-Fluoroorotic Acid (5-FOA; Melford laboratories). Allele exchange, in growing Ura3^-, 5-FOA resistant colonies, was confirmed by PCR and sequencing.
For live-cell imaging, cells expressing tagged proteins were visualised after growing to early log phase. Analysis was carried out at room temperature (22 °C). […] Images were taken simultaneously on separate scientific complementary metal oxide semiconductor (sCMOS) cameras (30 msec exposure). Seven 250 nm sections were acquired every 0.5 sec (241 time points). The stacks were then deconvolved and processed, using SoftWorx. Protein localisation and lifetime was analysed from those projections. Fiji software was used to assemble movies and kymographs, to track and record behaviour of individual spots. Graphs show mean ± SD. […] Where appropriate data was tested for normal distribution using Graphpad Prism software, and then subjected to the appropriate test as described in the methods for each experiment type.

For test [2], the system named is Las17 12mer peptides / GST-Sla1 SH3 domains. In words: Peptide spot array (Celluspot) of Las17 12mers probed with GST-Sla1 SH3 domains. To be noted: GST-Sla1 SH3 domain on 12mer array, 2-residue offset, anti-GST HRP, chemiluminescence. It counts as binding, Saccharomyces cerevisiae. The protocol:
A Purified individual GST-tagged Sla1 SH3 domains were used to probe a Celluspot array consisting of a series of 12 amino acid peptides starting with residue 181, and subsequent peptides starting at two amino acid intervals, up to amino acid 540. Binding of GST-Sla1 SH3 to the array was identified by further probing of HRP-tagged anti-GST and subsequent visualisation using chemiluminescence. […] Error bars are standard error of mean.
They were incubated with GST fused SH3 domains of Sla1 or with GST alone, as described in ref.[57]. Membranes were probed with HRP tagged anti-GST, and the presence of SH3-GST fusion protein was detected with ECL chemiluminescent detection solution (Thermo Fisher Scientific).

Test [3] relates to Las17-Arp2/3 mediated actin polymerisation. To be noted: 15 nM Las17, 1 µM Sla1 SH3 domains, ref [13]; cited from earlier work. An excerpt: In Sla1 the first two SH3 domains are immediately juxtaposed with no linker. There are then 236 residues before the third SH3 domain (Fig. 1A).
Test [4] has as its target T1, Las17 PPR-N fragment (residues 300-422), wild type (S. cerevisiae, UniProt Q12446 300-422).
T1 construct: Las17 (yeast WASP family protein, Las17/Bee1), S. cerevisiae, residues 300-422 (N-terminal half of the polyproline region, PPR-N); also called Las17(300-422); Las17 300-422; source: E. coli, purified (GST fusion on glutathione Sepharose, cleaved with PreScission Protease; a His-tagged form purified on a nickel column was also made)
In words: BLI; Octet R2 (Sartorius); Octet NTA Biosensors or Octet GST Biosensors, which partner was loaded is not stated; repeated three times; the constant of SH3#1-3 is called apparent. The settings on record: both partners purified. (In BLI a coated tip is dipped into the sample, and binding shifts an interference pattern.)

In test [5] the target is Las17 PPR-N fragment (residues 300-422). In words: Biolayer Interferometry (BLI), Sla1 SH3 domains to Las17 PPR-N. Type of test: binding, Saccharomyces cerevisiae. The settings on record: Biolayer Interferometry, Octet R2, Las17 (aa 300-422); three repeats with newly prepared protein; read-out: binding affinity (Kd). An excerpt: To investigate binding characteristics of the SH3 domains further, Sla1 SH3 protein domains were purified. Three Sla1 SH3 single domains, tandem domains Sla1 SH3#1&2, Sla1 SH3#1&2 W108A (in which the W108A mutation prevents proline motif binding by SH3#2 but not SH3#1) and a fragment with all three SH3 domains were expressed recombinantly and purified. […] This outcome is in line with original research of Rodal and colleagues and with more recent studies of avidity developed by Williamson, which highlighted the importance of tandem binding SH3 domains[13],[27].
Biolayer Interferometry (BLI) assays were performed using an OctetⓇ R2 (Sartorius). Protein samples were placed into the wells of a polystyrene plate (ProxiPlateTM, Perkin Elmer) and binding measured either with Octet NTA Biosensors or Octet GST Biosensors. Screening assays were performed to determine the optimum loading concentration and time for each binding pair to ensure that the probe was not saturated. All experiments were repeated three times, each time with newly prepared protein. Analysis and visualisation were performed using GraphPad Prism 10.0.2.

Test [6] has as its target T2, Sla1 SH3#1-2 tandem domains (aa 5-131) (S. cerevisiae, UniProt P32790 5-131, 15N-labelled (NMR only)).
T2 construct: Sla1, S. cerevisiae, first two SH3 domains (juxtaposed, no linker), residues 5-131; also called Sla1 SH3 domains 1 and 2; tandem SH3#1&2 domain; source: E. coli, purified (GST fusion, cleaved with Prescission protease; His-tagged Sla1-SH3 domains were also made); 15N- or 15N,13C-labelled for NMR
T2 sequence (looked up): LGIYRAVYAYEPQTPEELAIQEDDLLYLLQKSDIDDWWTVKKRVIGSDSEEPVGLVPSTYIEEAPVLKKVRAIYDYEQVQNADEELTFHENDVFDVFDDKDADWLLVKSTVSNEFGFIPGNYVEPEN
In words: NMR titration; 15N-labelled Sla1 SH3 domains, 1H-15N HSQC; concentrated peptide stocks in the same buffer and pH added stepwise (0 to 8 equivalents shown); shift changes fitted to the standard quadratic equation. To be noted: both partners purified.

A short description of test [7]: Liposome co-sedimentation assay. Type of test: binding. On the set-up: unit: %. The protocol:
Liposome binding assays were carried out as described previously. To prepare liposomes 11 μl of a 25 mg/ml solution of Folch fraction-1 was dried under a nitrogen stream. They were washed in chloroform, dried under nitrogen, and further washed with diethyl ether to remove all traces of chloroform before being dried again. The dried lipid mixture was resuspended in 200 µl of buffer B (20 mM HEPES pH 7.2, 100 mM KCl, 2 mM MgCl2, 1 mM DTT) at 37 °C for 30 min with regular gentle agitation. Liposomes were then extruded 11 times through polycarbonate filters with 1.0 μm pores. For liposome binding assays 20 μM Sla1 (pre-spun at 313,000 × g for 15 min) was mixed with 20 μl liposomes in buffer B, (final volume 50 µl) and incubated at room temperature for 15 min. Liposomes and bound protein were pelleted by centrifugation at 250,000 × g for 15 min, and supernatants and pellets carefully separated. The pellets were resuspended in 50 µl buffer B and samples were analysed by SDS-PAGE. The proportion of protein in each sample was determined by densitometry of the Coomassie stained gels using a BioRad GelDoc. Replicate experiments were carried out with protein from different preparations. To normalise the data the amount of protein in the supernatant and pellet of each sample was added together to give a value for 100%, and then the % in either the supernatant or pellet alone was calculated. When liposomes were included in the pyrene actin assay they were prepared as described for liposome binding assays, but the dried lipid mixture was resuspended in 5×KME in place of liposome buffer. This was then used as a source of KME in the pyrene actin assay as well as a source of lipid. Mean ± SD is shown n = 6. Sîdák’s multiple comparisons test was carried out using Graphpad Prism software, **** denotes two tailed P value of < 0.0001.
Liposome binding studies: triplicate experiments were carried out with protein from different preparations. To normalise the data the amount of protein in the supernatant and pellet of each sample was added together to give a value for 100%, and then the % in either the supernatant or pellet alone was calculated. Mean ± SD is shown n = 6. Sîdák’s multiple comparisons test was carried out using Graphpad Prism software, **** denotes two tailed P value of < 0.0001.

On to “wt: wild type cells with Las17-GFP and Arc15-mCherry”, for which, in test [1], the “lifetime, GFP alone” value is 20 (3×) and 22 (4×) and 18 (2×) and 28 and 24 and 26 (2×); the “lifetime, GFP and RFP” value is 30 and 44 and 36 and 32 (4×); the “lifetime, RFP” value is 34 and 48 and 44 and 36 (3×) and 46.

“Sla1 SH3#3: SH3#3 (aa 354-413) (SKKRGIVQYDFMAESQDELTIKSGDKVYILDDKKSKDWWMCQLVDSGKSGLVPAQFIEPV; also: 15N-labelled)”: the “binding to Las17 peptide spots” value in test [2] is “strongest binding for peptides in proline tracts 1 and 3”. In test [3], the “inhibition of actin polymerisation activity” value is “not”.

B1: Sla1 SH3#1 (aa 3-68) (domain or fragment, S. cerevisiae, UniProt P32790 3-68, looked up)
chain: VFLGIYRAVYAYEPQTPEELAIQEDDLLYLLQKSDIDDWWTVKKRVIGSDSEEPVGLVPSTYIEEA
notes: Sla1, S. cerevisiae, first SH3 domain, residues 3-68; also called Sla1 SH3 domain 1; source: E. coli, purified (GST fusion, GST removed with thrombin; His-tagged Sla1-SH3 domains were also made)
As to B1, the Kd in test [4] turned out to be 7.5 µM.

B2: Sla1 SH3#1: Sla1 SH3#1 (aa 3-68) (protein)
chain: B1 chain
modifications: left off: GST, end not stated, kept
B2: the “binding to Las17 peptide spots” value in test [2] was “preference for sequences in the Las17 proline tracts 2 and 3”. Moreover, the “inhibition of actin polymerisation activity” value in test [3] was “about 80%”.

B3: Sla1 SH3 1&2-W108A: W108A mutation prevents proline motif binding by SH3#2 but not SH3#1 (protein, UniProt P32790 5-131, looked up, variant W108A)
chain: T2 sequence (looked up) with W104A
B3: the Kd in test [5] amounted to 7.4 µM.

B4: Las17 peptide p3 (PP3 motif) (peptide)
peptide: LPAQTGRRGPAPPPPPRASRPTP
notes: Las17, S. cerevisiae, third PP motif; also called peptide 3; source: synthetic peptide (GenScript Biotech, UK)
Take B4: in test [6], the “Kd at site SH3#1” value was approximately 24 µM and the “Kd at site SH3#2” value is approximately 190 µM.

B5: GST-Sla1 SH3#1-3: GST-tagged Sla1 SH3#1-3 containing the predicted PH domain (protein, UniProt P32790 5-413, looked up, fragment)
chain: LGIYRAVYAYEPQTPEELAIQEDDLLYLLQKSDIDDWWTVKKRVIGSDSEEPVGLVPSTYIEEAPVLKKVRAIYDYEQVQNADEELTFHENDVFDVFDDKDADWLLVKSTVSNEFGFIPGNYVEPENGSTSKQEQAPAAAEAPAATPAAAPASAAVLPTNFLPPPQHNDRARMMQSKEDQAPDEDEEGPPPAMPARPTATTETTDATAAAVRSRTRLSYSDNDNDDEEDDYYYNSNSNNVGNHEYNTEYHSWNVTEIEGRKKKKAKLSIGNNKINFIPQKGTPHEWSIDKLVSYDNEKKHMFLEFVDPYRSLELHTGNTTTCEEIMNIIGEYKGASRDPGLREVEMASKSKKRGIVQYDFMAESQDELTIKSGDKVYILDDKKSKDWWMCQLVDSGKSGLVPAQFIEPV
modifications: GST tag
notes: GST-tagged Sla1 SH3#1-3 containing the predicted PH domain
Take B5: the liposome co-sedimentation entry is “co-precipitates with liposomes” in test [7] (20 μM Sla1, buffer B, room temperature 15 min, 250,000 × g); 0 in test [7] (- lipid, replicate 1); 11.5044 in test [7] (- lipid, replicate 2); 0 in test [7] (- lipid, replicate 3); 2.9 in test [7] (- lipid, replicate 4); 3 in test [7] (- lipid, replicate 5). The same molecule gave a liposome co-sedimentation in test [7] (- lipid, replicate 6) of 5.

B6: Las17 peptide p1 (PP1 motif) (peptide)
peptide: RNNRPVPPPPPMRTTTEGSGVR
notes: Las17, S. cerevisiae, first PP motif; also called peptide 1; source: synthetic peptide (GenScript Biotech, UK)
In the case of B6, in test [6], the “Kd at site SH3#1” value is approximately 70 µM and the “Kd at site SH3#2” value was approximately 550 µM.

B7: Sla1 SH3#3 (aa 354-413) (domain or fragment, S. cerevisiae, UniProt P32790 354-413, looked up)
chain: SKKRGIVQYDFMAESQDELTIKSGDKVYILDDKKSKDWWMCQLVDSGKSGLVPAQFIEPV
modifications: also: 15N-labelled
notes: Sla1, S. cerevisiae, third SH3 domain, residues 354-413; also called Sla1 SH3 domain 3; source: E. coli, purified (GST fusion, GST removed with thrombin; His-tagged Sla1-SH3 domains were also made); 15N-labelled for NMR
On to B7, for which the Kd in test [4] came to 16 µM.
